From publication doi:10.64898/2025.12.30.697096 (bioRxiv, 2025)
No end group written: not given here. *: point of attachment. MTSL = nitroxide spin label, CC1(C)C=C(CS*)C(C)(C)N1[O]

B1: Glu3-tagged Bax α9 peptide (Bax residues Gly166 to Gly192) (peptide, UniProt Q07812 166-192, looked up)
chain: GTPTWQTVTIFVAGVLTASLTIWKKMG

How the values were obtained:
[1] = biological target: the molecule itself; experiment: cross-linking
[2] = biological target: B1; experiment: NMR paramagnetic relaxation enhancement

binding result [2]	Binder	stoichiometry N [1]
–	B1	2
binds	GTPTWQC(MTSL)VTIFVAGVLTASLTIWKKMG (peptide, UniProt Q07812 166-192, looked up) [Bax (α9) T172C with MTSL spin probe]	–
binds	GTPTWQTVTIFVAGVLTASLTIC(MTSL)KKMG (peptide, UniProt Q07812 166-192, looked up) [Bax (α9) W188C with MTSL spin probe]	–
binds	GTPTWQTVTIFVAC(MTSL)VLTASLTIWKKMG (peptide, UniProt Q07812 166-192, looked up) [Bax (α9) G179C with MTSL spin probe]	–
